From patent US20070014720A1 (published 2007)

T1: human CD20 (human, UniProt P11836 1-297)
T1 sequence (looked up): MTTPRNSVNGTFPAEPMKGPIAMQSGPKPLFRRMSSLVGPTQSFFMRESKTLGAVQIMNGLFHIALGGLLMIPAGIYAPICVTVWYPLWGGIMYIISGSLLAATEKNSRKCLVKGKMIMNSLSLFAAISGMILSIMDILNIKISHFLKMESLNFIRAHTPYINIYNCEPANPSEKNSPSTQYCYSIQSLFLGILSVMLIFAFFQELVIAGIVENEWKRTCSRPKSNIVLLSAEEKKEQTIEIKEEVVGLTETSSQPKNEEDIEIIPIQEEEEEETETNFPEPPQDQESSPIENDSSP


Target: T1, human CD20
Assay: cell-based or functional assay

Row | Binder | % Lysis Daudi 0.001 µg/ml ADCC | % Lysis Daudi 1 µg/ml ADCC | % Lysis Raji 0.001 µg/ml ADCC | % Lysis Raji 1 µg/ml ADCC | % Lysis Ramos 0.001 µg/ml ADCC | % Lysis Ramos 1 µg/ml ADCC | EC50 µg/ml Daudi CDC | EC50 µg/ml Raji CDC | EC50 µg/ml Ramos Apoptosis Alamar Blue | EC50 µg/ml Ramos Apoptosis Annexin V | EC50 µg/ml Ramos Apoptosis Cell Titer Glo | EC50 µg/ml Ramos Apoptosis WST-1 | EC50 µg/ml Ramos CDC
1 | mAb 1.6.2 (antibody, human IgG1, V domains shown) VH: EVQLVQSGAEVKKPGESLKISCKGSGYSFTSYWIGWVRQMPGKGLEWMGIIYPGDSDTRYSPSFQGQVTISADKSISTAYLQWSSLKASDTAMYYCARHGDYSNIDAFDIWGQGTMVTVSS VL: DVVMTQSPLSLPVTLGQPASISCRSSQSLVYSDGNAYLNWFQQRPGQSPRRLIYKVSNWDSGVPDRFSGSGSGTDFTLKIRRVEAEDVGAYYCMQGIHCTFGPGTKVHIK | 77% | 79% | 5% | 36% | 3% | 43% | ~10 µg/mL | 0.38 µg/mL | 0.16 µg/mL | 0.67 µg/mL | 0.476 µg/mL | 0.0393 µg/mL | 0.31 µg/mL
2 | mAb 1.12.3 (antibody, human IgG1, V domains shown) VH: EVQLVQSGAEVKKPGESLKISCKGSGYSFTSYWIGWVRQMSGKGLEWMGIIYPGDSDTRYSPSFQGQVTISADKSISTAYLQWSSLKASDTAIYYCARHPSYGSGSPNFDYWGQGTLVTVSS VL: DIVMTQTPLSSPVTLGQPASISCRSSQSLVYSDGNTYLSWLQQRPGQPPRLLFYKISNRFSGVPDRFSGSGAGTDFTLKISRVEAEDVGVYYCVQATQFPLTFGGGTKVEIK | 17% | 63% | 3% | 10% | 2% | 29% | 9.39 µg/mL | 1.31 µg/mL | 0.026 µg/mL | 0.191 µg/mL | 0.0989 µg/mL | 0.0383 µg/mL | 2.07 µg/mL
3 | mAb 1.4.3 (antibody, human IgG1, V domains shown) VH: EVQLVQSGAEVKKPGESLKISCKGSGYSFTSYWIGWVRQMPGKGLEWMGIIYPGDSDTRYSPSFQGQVTISADKSITTAYLQWSSLKASDTAMYYCARHPSYGSGSPNFDYWGQGTLVTVSS VL: not shown | 62% | 72% | 7% | 37% | 4% | 52% | ~10 µg/mL | 1.3 µg/mL | 0.11 µg/mL | 2.86 µg/mL | 0.342 µg/mL | 0.0514 µg/mL | 13.1 µg/mL
4 | mAb 1.9.2 (antibody, human IgG1, V domains shown) VH: EVQLVQSGAEVKKPGESLKISCKGSGYSFTSYWIGWVRQMPGKGLEWMGIIYPGDSDTRYSPSFQGQVTISADKSISTAYLQWSSLKASDTAMYYCARHGDFWSGYYSFDYWGQGTLVTVSS VL: not shown | 19% | 74% | 5% | 17% | 3% | 40% | > 10 µg/mL | 52.9 µg/mL |  |  | 0.528 µg/mL |  | > 10 µg/mL

Now from value to binder:

Row | % Lysis Daudi 0.001 µg/ml ADCC | % Lysis Daudi 1 µg/ml ADCC | % Lysis Raji 0.001 µg/ml ADCC | % Lysis Raji 1 µg/ml ADCC | % Lysis Ramos 0.001 µg/ml ADCC | % Lysis Ramos 1 µg/ml ADCC | EC50 µg/ml Daudi CDC | EC50 µg/ml Raji CDC | EC50 µg/ml Ramos Apoptosis Alamar Blue | EC50 µg/ml Ramos Apoptosis Annexin V | EC50 µg/ml Ramos Apoptosis Cell Titer Glo | EC50 µg/ml Ramos Apoptosis WST-1 | EC50 µg/ml Ramos CDC | Binder
5 | 36% | 76% | 9% | 24% | -3% | 46% | ~10 µg/mL | 3.72 µg/mL | 0.112 µg/mL | 4.68 µg/mL | 0.983 µg/mL | 0.042 µg/mL | 3.12 µg/mL | mAb 2.4.1 (antibody, human IgG1, V domains shown) VH: EVQLVQSGAEVKKPGESLKISCKGSGYSFTNYWIGWVRQMPGKGLEWMGIIYPGDSDTRYSPSFQGQVTISADKSISTAYLQWSSLKASDTAMYYCARHGDYYASESSAFDIWGQGTMVTVSS VL: not shown
6 | 60% | 79% | 7% | 44% | 12% | 65% | 1.66 µg/mL | 0.5 µg/mL | 0.0207 µg/mL | 0.373 µg/mL | 0.139 µg/mL | 0.00076 µg/mL | 1.03 µg/mL | mAb 2.2.2 (antibody, human IgG1, V domains shown) VH: EVQLVQSGAEVKKPGESLKISCKGSGYSFTSYWIGWVRQMPGKGLEWMGIIYPGDSDTKYSPSFQGQVTISADKSISTAYLQWSSLKASDTAMYYCARQGDFWSGNGGMDVWGQGTTVTVSS VL: DIVMTQTPLSSPVTLGQPASISCRSSQSLVSRDGNTYLSWLQQRPGQPPRLLIYKISNRFSGVPDRFSGSGAGTDFTLKISRVEVEDVGVYYCMQATQFPITFGQGTRLEIK
